According to paper PMC11102866, “Nucleosome-bound NR5A2 structure reveals pioneer factor mechanism by DNA minor groove anchor competition”:

B1: 25 bp DNA with Nr5a2 consensus motif (dsDNA)
DNA 1: GAGAGAGTCAAGGCCATGGCTCACT
DNA 2: AGTGAGCCATGGCCTTGACTCTCTC
B2: 149 bp endogenous mouse DNA (dsDNA)
DNA 1: GGACTGGGACTTCTAAAACAAGACCTTAGTTAGGTGTGGTGCTGCATGCCTTTAATCTCAGCAGTCTGGAGGCAGAGACAGGGAGGTCTCTATGAGTTCAAGGCCAGCCTAATCTACACAGTGAGTTCCAGGACAGTCAGGGCTATAGA
DNA 2: TCTATAGCCCTGACTGTCCTGGAACTCACTGTGTAGATTAGGCTGGCCTTGAACTCATAGAGACCTCCCTGTCTCTGCCTCCAGACTGCTGAGATTAAAGGCATGCAGCACCACACCTAACTAAGGTCTTGTTTTAGAAGTCCCAGTCC

How the values were obtained:
NR5A2 D159A [1] = target: T1, NR5A2 D159A (Homo sapiens, UniProt O00482 1-541, D159A); test: EMSA; slightly less than wild type, not significant; EMSA: 20 mM Tris-HCl pH 7.5, 120 mM NaCl, 1 mM MgCl2, 10 uM ZnCl2, 1 mM DTT, 100 ug/ml BSA, room temperature, 30 min; 50 nM DNA or nucleosome; conditions: protein: recombinant; tags: N-terminal His6-TEV, His6 removed with TEV protease; blunt
NR5A2 D159A [2] = target: T1, NR5A2 D159A; test: EMSA; similar to wild type; EMSA: 20 mM Tris-HCl pH 7.5, 120 mM NaCl, 1 mM MgCl2, 10 uM ZnCl2, 1 mM DTT, 100 ug/ml BSA, room temperature, 30 min; 50 nM DNA or nucleosome; conditions: protein: recombinant; tags: N-terminal His6-TEV, His6 removed with TEV protease
NR5A2 wild type = NR5A2 wild type (Homo sapiens, UniProt O00482 1-541); test: EMSA; EMSA: 20 mM Tris-HCl pH 7.5, 120 mM NaCl, 1 mM MgCl2, 10 uM ZnCl2, 1 mM DTT, 100 ug/ml BSA, room temperature, 30 min; 50 nM DNA or nucleosome; conditions: protein: recombinant; tags: N-terminal His6-TEV, His6 removed with TEV protease

| Binder | binding result (NR5A2 D159A [1]) | binding result (NR5A2 D159A [2]) | binding result (NR5A2 wild type) |
| --- | --- | --- | --- |
| B1 | binds |  |  |
| B2 |  | binds | binds |
